Target: DENND10 (recombinant, pull-down) (human, UniProt Q8TCE6 1-357)
Assay: pull-down

Chain of DENND10 (recombinant, pull-down) (Q8TCE6 whole entry): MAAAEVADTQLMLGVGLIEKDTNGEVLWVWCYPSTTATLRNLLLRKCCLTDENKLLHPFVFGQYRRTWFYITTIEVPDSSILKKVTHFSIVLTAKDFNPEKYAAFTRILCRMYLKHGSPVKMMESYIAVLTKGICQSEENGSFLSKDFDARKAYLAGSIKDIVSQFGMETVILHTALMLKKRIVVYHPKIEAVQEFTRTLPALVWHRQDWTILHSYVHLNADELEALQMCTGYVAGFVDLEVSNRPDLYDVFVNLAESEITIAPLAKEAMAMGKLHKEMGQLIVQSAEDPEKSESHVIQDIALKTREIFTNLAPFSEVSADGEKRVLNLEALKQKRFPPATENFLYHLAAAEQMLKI

| binding result | Binder |
| --- | --- |
| binds | MBP-tagged CCDC22-CCDC93 DBD (complex, human) chain 1: GAGAKTGAPKGSRFTHSEKFTFHLEPQAQATQVSDVPATSRRPEQVTWAAQEQELESLREQLEGVNRSIEEVEADMKTLGVSFVQAESECRHSKLSTAEREQALRLKSRAVELLPDGTANLAKLQLVVENSAQRVIHLAGQWEKHRVPLLAEYRHLRKLQDCRELES chain 2: SPEKLGTSQLHRRKVISLNKQIAQKTKHLEELRASHTSLQARYNEAKKTLTELKTYSEKLDKEQAALEKIESKADPSILQNLRALVAMNENLKSQEQEFKAHCREEMTRLQQEIENLKAERAPRGDEKT |
| binds | MBP-tagged CCDC22-CCDC93 DBD, CCDC93 E410R (complex, human) chain 1: GAGAKTGAPKGSRFTHSEKFTFHLEPQAQATQVSDVPATSRRPEQVTWAAQEQELESLREQLEGVNRSIEEVEADMKTLGVSFVQAESECRHSKLSTAEREQALRLKSRAVELLPDGTANLAKLQLVVENSAQRVIHLAGQWEKHRVPLLAEYRHLRKLQDCRELES chain 2: SPEKLGTSQLHRRKVISLNKQIAQKTKHLEELRASHTSLQARYNEAKKTLTELKTYSEKLDKEQAALEKIESKADPSILQNLRALVAMNENLKSQEQEFKAHCRERMTRLQQEIENLKAERAPRGDEKT |

Reference: PMC11260360 (Nature structural & molecular biology, 2023)
